Measured values from US8734776B2 (ZymoGenetics, Inc., priority 2003, dated 2014).

T1: zcyto20 (Homo sapiens, UniProt Q8IZJ0)
T1 sequence (Q8IZJ0 26-200): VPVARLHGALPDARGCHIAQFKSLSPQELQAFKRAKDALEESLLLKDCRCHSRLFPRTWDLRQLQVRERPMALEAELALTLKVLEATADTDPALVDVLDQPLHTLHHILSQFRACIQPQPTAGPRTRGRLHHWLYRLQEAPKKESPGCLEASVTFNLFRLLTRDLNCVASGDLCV

T2: zcyto24 (Mus musculus, UniProt Q4VK74)
T2 sequence (Q4VK74 20-193): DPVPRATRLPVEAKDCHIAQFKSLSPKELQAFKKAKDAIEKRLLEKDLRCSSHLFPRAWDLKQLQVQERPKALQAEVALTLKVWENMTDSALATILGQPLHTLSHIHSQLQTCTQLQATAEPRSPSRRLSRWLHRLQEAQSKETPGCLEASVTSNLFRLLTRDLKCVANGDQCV


Key:
Type in all cases: cell-based
[1] = biological target: T1, zcyto20; assay: Inhibition of ligand-induced ISRE signaling by soluble receptors, zcyto20; conditions: soluble receptor 10 micrograms/ml; for Percent Inhibition of Ligand-induced ISRE Signaling by Soluble Receptors: ligand Zcyto20 10 ng/ml; for effect on ligand-induced signaling: zcyto20, zcyto21 or zcyto24 10 ng/ml
Description: (§1) A signal transduction reporter assay can be used to show the inhibitor properties of zcytor19-Fc4 homodimeric and zcytor19-Fc/CRF2-4-Fc heterodimeric soluble receptors on zcyto20, zcyto21 and zcyto24 signaling Human embryonal kidney (HEK) cells overexpressing the zcytor19 receptor are transfected with a reporter plasmid containing an interferon-stimulated response element (ISRE) driving transcription of a luciferase reporter gene. Luciferase activity following stimulation of transfected cells with ligands (including zcyto20 (SEQ ID NO:2), zcyto21 (SEQ ID NO:4), zcyto24 (SEQ ID NO: 8)) reflects the interaction of the ligand with soluble receptor.
(§2) 293 HEK cells overexpressing zcytor19 were transfected as follows: 700,000 293 cells/well (6 well plates) were plated approximately 18 h prior to transfection in 2 milliliters DMEM+10% fetal bovine serum. Per well, 1 microgram pISRE-Luciferase DNA (Stratagene) and 1 microgram pIRES2-EGFP DNA (Clontech,) were added to 6 microliters Fugene 6 reagent (Roche Biochemicals) in a total of 100 microliters DMEM. This transfection mix was added 30 minutes later to the pre-plated 293 cells. Twenty-four hours later the transfected cells were removed from the plate using trypsin-EDTA and replated at approximately 25,000 cells/well in 96 well microliter plates. Approximately 18 h prior to ligand stimulation, media was changed to DMEM+0.5% FBS.
(§3) The signal transduction reporter assays were done as follows: Following an 18 h incubation at 37° C. in DMEM+0.5% FBS, transfected cells were stimulated with 10 ng/ml zcyto20, zcyto21 or zcyto24 and 10 micrograms/ml of the following soluble receptors; human zcytor19-Fc homodimer, human zcytor19-Fc/human CRF2-4-Fc heterodimer, human CRF2-4-Fc homodimer, murine zcytor19-Ig homodimer. Following a 4-hour incubation at 37° C., the cells were lysed, and the relative light units (RLU) were measured on a luminometer after addition of a luciferase substrate. The results obtained are shown as the percent inhibition of ligand-induced signaling in the presence of soluble receptor relative to the signaling in the presence of PBS alone.

[2] = biological target: T2, zcyto24; assay: Inhibition of ligand-induced ISRE signaling by soluble receptors, zcyto24; conditions: ligand Zcyto24 10 ng/ml; soluble receptor 10 micrograms/ml
Description: as §1, §2, §3

[3] = biological target: zcyto21 (Homo sapiens, UniProt Q8IU54); assay: Inhibition of ligand-induced ISRE signaling by soluble receptors, zcyto21; conditions: ligand Zcyto21 10 ng/ml; soluble receptor 10 micrograms/ml
Description: as §1, §2, §3

Sequence of zcyto21 (Q8IU54 20-200): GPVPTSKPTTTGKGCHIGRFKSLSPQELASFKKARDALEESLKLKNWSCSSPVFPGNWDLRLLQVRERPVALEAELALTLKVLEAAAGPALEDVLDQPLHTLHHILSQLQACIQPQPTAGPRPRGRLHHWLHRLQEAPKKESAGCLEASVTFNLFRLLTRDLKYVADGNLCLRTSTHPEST

Row | Percent Inhibition of Ligand-induced ISRE Signaling by Soluble Receptors [1] | effect on ligand-induced signaling [1] | Percent Inhibition of Ligand-induced ISRE Signaling by Soluble Receptors [2] | Percent Inhibition of Ligand-induced ISRE Signaling by Soluble Receptors [3] | Molecule
1 | 80% | No significant effects | 82% | 79% | HuCRF2-4-Fc: human CRF2-4-Fc homodimer soluble receptor
2 | 16% | – | 47% | 16% | Huzcytor19-Fc/huCRF2-4-Fc: human zcytor19-Fc/human CRF2-4-Fc heterodimer soluble receptor
3 | 91% | No significant effects | 89% | 103% | Muzcytor19-Ig: murine zcytor19-Ig homodimer soluble receptor (protein, left off: a dimerising Fc or GST, murine zcytor19-Ig homodimer soluble receptor) RPRLAPPRNVTLFSQNFTVYLTWLPGLGSPPNVTYFVTYQSYIKTGWRPVEHCAGIKALVCPLMCLKKLNLYSKFKGRVQAASAHGRSPRVESRYLEYLFDVELAPPTLVLTQMEKILRVNATYQLPPCMPSLELKYQVEFWKEGLGSKTLFPDTPYGQPVQIPLQQGASRRHCLSARTVYTLIDIKYSQFSEPSCIFLEAPGDKRA
4 | 92% | – | 90% | 45% | Huzcytor19-Fc: human zcytor19-Fc homodimer soluble receptor (protein, left off: a dimerising Fc or GST, human zcytor19-Fc homodimer soluble receptor) RPRLAPPQNVTLLSQNFSVYLTWLPGLGNPQDVTYFVAYQSSPTRRRWREVEECAGTKELLCSMMCLKKQDLYNKFKGRVRTVSPSSKSPWVESEYLDYLFEVEPAPPVLVLTQTEEILSANATYQLPPCMPPLDLKYEVAFWKEGAGNKTLFPVTPHGQPVQITLQPAASEHHCLSARTIYTFSVPKYSKFSKPTCFLLEVPEANWA
